# Laboratory results as given in patent publication US6958236B2, “Control of gene expression in plants” (priority 2000, dated 2005).
# Test system: pCGS206 (luciferase reporter with response elements for the GAL4 DNA binding domain)
# Experiment: Maize BMS cells bombarded with GAL4 luciferase reporter and receptor vector, GUS-normalized luciferase
# Format: cell-based
# Conditions: for Fold Induction with Teb Relative to Receptor with EtOH / Fold Induction with Teb Relative to Reporter with EtOH: 20 μM Teb; for Normalized Average (EtOH): unliganded background; for Experiment #1 Luciferase / Experiment #2 Luciferase / Experiment #1 Fold Induction / Experiment #2 Fold Induction: Example 26; for Experiment #1 Fold Induction / Experiment #2 Fold Induction: + 10 μM Teb vs without; for Experiment #1 RLU / Experiment #2 RLU: Example 28, GUS-normalized
# Experimental: (§1) Maize BMS (Black Mexican Sweet) cultured cells are transfected with pCGS206 and pCGS208 by high velocity microprojectile bombardment. In addition, an expression plasmid containing the maize ubiquitin promoter driving the expression of β-glucuronidase (GUS) is added to the transfection to serve as an internal control to normalize against variations among the samples.
# (§2) Transfections are treated and cell lysates are made essentially as described in U.S. Pat. No. 5,880,333. […] Both luciferase and GUS assays are performed with 20 μl of cell lysate for each assay using the Promega Luciferase Kit (Promega cat #E1500) and GUS-Light Kit (Tropix) respectively. Relative light units are determined using a Turner Designs TD 20/20 luminometer.
# In addition to tebufenozide, methoxytebufenozide (“MethoxyTeb”) is also capable of inducing gene expression in maize BMS cells. Both pCGS206 and pCGS208 are transfected as described above and methoxytebufenozide is added in place of tebufenozide at 25 μM and 10 μM.
# Maize BMS cells are transfected and assayed as in Example 12.
# as §1, with “Transformation of maize suspension cells, chemical treatment, and reporter activity assays are performed as described in Example 12. Maize” for “Maize”, “pCGS206 (pBS-bz1TATA/intronLUC), pCGS203 (G(M)MV), pCGS672 (G(M)MC),” for “pCGS206”, “pCGS678 (G(M)MD)” for “pCGS208”
# as §2, with “Maize BMS cells are bombarded with reporter vector pCGS206 and chimeric receptors and treated with tebufenozide essentially as described in Example 12. Transfections” for “Transfections”, “units (RLU)” for “units”
# [1] = Example 24, Experiment 1, BMS cells
# [2] = Example 24, Experiment 2, BMS cells
# [3] = BMS cells, reporter pCGS206, no ligand
molecule,measurement,setting,value
"G(E)EV: EcR chimera: GAL4 DBD, European corn borer D and E domains, VP16; SEQ ID NO:124-125 (protein) MQQLYVDFFSPAFIRYLFAWYCFFCRCSPCCLVLLLQGSATMKLLSSIEQACDICRLKKLKCSKEKPKCAKCLKNNWECRYSPKTKRSPLTRAHLTEVESRLERLEQLFLLIFPREDLDMILKMDSLQDIKALLTGLFVQDNVNKDAVTDRLASVETDMPLTLRQHRISATSSSEESSNKGQRQLTVSTRMRPECVVPETQCAQKRKEKKAQREKDKLPVSTTTVDDHMPPIMQCDPPPPEAARILECLQHEVVPRFLSEKLMEQNRLKNIPPLTANQQFLIARLVWYQDGYEQPSEEDLKRVTQTWQSADEEDEDSDMPFRQITEMTILTVQLIVEFAKGLPGFSKISQPDQITLLKACSSEVMMLRVARRYDAVSDSVLFANNQAYTRDNYRKAGMAYVIEDLLHFCRCMYSMSMDNVHYALLTAIVIFSDRPGLEQPQLVEEIQRYYLNTLRVYIMNQHSASPRCAVIYAKILSVLTELRTLGMQNSNMCISLKLKNRKLPPFLEEIWDVKLAPPTDVSLGDELHLDGEDVAMAHADALDDFDLDMLGDGDSPGPGFTPHDSAPYGALDMADFEFEQMFTDALGIDEYGG",Fold Induction with Teb Relative to Receptor with EtOH,"Example 24, Experiment 1",57 fold
same,Fold Induction with Teb Relative to Reporter with EtOH,"Example 24, Experiment 1",119 fold
same,Normalized Average (EtOH),[1],7.601
same,Fold Induction with Teb Relative to Receptor with EtOH,"Example 24, Experiment 2",17 fold
same,Fold Induction with Teb Relative to Reporter with EtOH,"Example 24, Experiment 2",99 fold
same,Normalized Average (EtOH),[2],2.394
"G(E)MV: EcR chimera: GAL4 DBD, European corn borer D domain, Manduca sexta E domain, VP16; SEQ ID NO:126-127 (protein) MQQLYVDFFSPAFIRYLFAWYCFFCRCSPCCLVLLLQGSATMKLLSSIEQACDICRLKKLKCSKEKPKCAKCLKNNWECRYSPKTKRSPLTRAHLTEVESRLERLEQLFLLIFPREDLDMILKMDSLQDIKALLTGLFVQDNVNKDAVTDRLASVETDMPLTLRQHRISATSSSEESSNKGQRQLTVSTRMRPECVVPETQCAQKRKEKKAQREKDKLPVSTTTVDDHMPPIMQCDPPPPEAARILECLQHEVVPRFLSEKLMEQNRLKNIPPLTANQQFLIARLVWYQEGYEQPSEEDLKRVTQTWQLEEEEEEETDMPFRQITEMTILTVQLIVEFAKGLPGFSKISQSDQITLLKASSSEVMMLRVARRYDAATDSVLFANNQAYTRDNYRKAGMSYVIEDLLHFCRCMYSMSMDNVHYALLTAIVIFSDRPGLEQPLLVEEIQRYYLKTLRVYILNQHSASPRCAVLFGKILGVLTELRTLGTQNSNMCISLKLKNRKLPPFLEEIWDVAEVSTTKLAPPTDVSLGDELHLDGEDVAMAHADALDDFDLDMLGDGDSPGPGFTPHDSAPYGALDMADFEFEQMFTDALGIDEYGG",Fold Induction with Teb Relative to Receptor with EtOH,"Example 24, Experiment 1",34 fold
same,Fold Induction with Teb Relative to Reporter with EtOH,"Example 24, Experiment 1",135 fold
same,Normalized Average (EtOH),[1],14.499
same,Fold Induction with Teb Relative to Receptor with EtOH,"Example 24, Experiment 2",16 fold
same,Fold Induction with Teb Relative to Reporter with EtOH,"Example 24, Experiment 2",95 fold
same,Normalized Average (EtOH),[2],2.537
"G(M)MC: EcR chimera: GAL4 DBD, Manduca sexta D and E domains, maize C1 activation domain; SEQ ID NO:134-135 (protein) MQQLYVDFFSPAFIRYLFAWYCFFCRCSPCCLVLLLQGSATMKLLSSIEQACDICRLKKLKCSKEKPKCAKCLKNNWECRYSPKTKRSPLTRAHLTEVESRLERLEQLFLLIFPREDLDMILKMDSLQDIKALLTGLFVQDNVNKDAVTDRLASVETDMPLTLRQHRISATSSSEESSNKGQRQLTVSTRMRPECVVPESTCKNKRREKEAQREKDKLPVSTTTVDDHMPAIMQCDPPPPEAARIHEVVPRFLTEKLMEQNRLKNVTPLSANQKSLIARLVWYQEGYEQPSEEDLKRVTQTWQLEEEEEEETDMPFRQITEMTILTVQLIVEFAKGLPGFSKISQSDQITLLKASSSEVMMLRVARRYDAATDSVLFANNQAYTRDNYRKAGMSYVIEDLLHFCRCMYSMSMDNVHYALLTAIVIFSDRPGLEQPLLVEEIQRYYLKTLRVYILNQHSASPRCAVLFGKILGVLTELRTLGTQNSNMCISLKLKNRKLPPFLEEIWDVAEVSTTKLPKAVRCTGGLFFFHRDTTPAHAGETATPMAGGGGGGGGEAGSSDDCSSAASVSLRVGSHDEPCFSGDGDGDWMDDVRALASFLESDEDWLRCQTAGQLA",Experiment #1 Luciferase,+ 10 μM Teb,53.20
same,Experiment #2 Luciferase,+ 10 μM Teb,28.05
same,Experiment #1 Fold Induction,,26.0 fold
same,Experiment #2 Fold Induction,,17.8 fold
same,Experiment #1 Luciferase,[3],2.05
same,Experiment #2 Luciferase,[3],1.58
"G(M)MD: EcR chimera: GAL4 DBD, Manduca sexta D and E domains, maize Dof1 activation domain; SEQ ID NO:136-137 (protein) MQQLYVDFFSPAFIRYLFAWYCFFCRCSPCCLVLLLQGSATMKLLSSIEQACDICRLKKLKCSKEKPKCAKCLKNNWECRYSPKTKRSPLTRAHLTEVESRLERLEQLFLLIFPREDLDMILKMDSLQDIKALLTGLFVQDNVNKDAVTDRLASVETDMPLTLRQHRISATSSSEESSNKGQRQLTVSTRMRPECVVPESTCKNKRREKEAQREKDKLPVSTTTVDDHMPAIMQCDPPPPEAARIHEVVPRFLTEKLMEQNRLKNVTPLSANQKSLIARLVWYQEGYEQPSEEDLKRVTQTWQLEEEEEEETDMPFRQITEMTILTVQLIVEFAKGLPGFSKISQSDQITLLKASSSEVMMLRVARRYDAATDSVLFANNQAYTRDNYRKAGMSYVIEDLLHFCRCMYSMSMDNVHYALLTAIVIFSDRPGLEQPLLVEEIQRYYLKTLRVYILNQHSASPRCAVLFGKILGVLTELRTLGTQNSNMCISLKLKNRKLPPFLEEIWDVAEVSTTKLELATAADPGKTATTTTTTTSEITTETGALEDSDSLAHLLLQPGTEDAEAVALGLGLSDFPSAGKAVLDDEDSFVWPAASFDMGACWAGAGFADPDPACIFLNLP",Experiment #1 Luciferase,+ 10 μM Teb,6.37
same,Experiment #2 Luciferase,+ 10 μM Teb,9.14
same,Experiment #1 Fold Induction,,3.0 fold
same,Experiment #2 Fold Induction,,7.8 fold
same,Experiment #1 Luciferase,[3],2.14
same,Experiment #2 Luciferase,[3],1.18
"VG(M)M: EcR chimera: N-terminal VP16, GAL4 DBD, Manduca D and E domains; SEQ ID NO:142-143 (protein) MQQLYVDFFSPAFIRYLFAWYCFFCRCSPCCLVLLLQGSATMHVKLAPPTDVSLGDELHLDGEDVAMAHADALDDFDLDMLGDGDSPGPGFTPHDSAPYGALDMADFEFEQMFTDALGIDEYGGHVTSKLLSSIEQACDICRLKKLKCSKEKPKCAKCLKNNWECRYSPKTKRSPLTRAHLTEVESRLERLEQLFLLIFPREDLDMILKMDSLQDIKALLTGLFVQDNVNKDAVTDRLASVETDMPLTLRQHRISATSSSEESSNKGQRQLTVSTRMRPECVVPESTCKNKRREKEAQREKDKLPVSTTTVDDHMPAIMQCDPPPPEAARIHEVVPRFLTEKLMEQNRLKNVTPLSANQKSLIARLVWYQEGYEQPSEEDLKRVTQTWQLEEEEEEETDMPFRQITEMTILTVQLIVEFAKGLPGFSKISQSDQITLLKASSSEVMMLRVARRYDAATDSVLFANNQAYTRDNYRKAGMSYVIEDLLHFCRCMYSMSMDNVHYALLTAIVIFSDRPGLEQPLLVEEIQRYYLKTLRVYILNQHSASPRCAVLFGKILGVLTELRTLGTQNSNMCISLKLKNRKLPPFLEEIWDVAEVSTTKL",Experiment #1 RLU,[3],2.21 RLU
same,Experiment #2 RLU,[3],2.52 RLU
"GV(M)M: EcR chimera: GAL4 DBD, internal VP16, Manduca D and E domains; SEQ ID NO:147-148 (protein) MQQLYVDFFSPAFIRYLFAWYCFFCRCSPCCLVLLLQGSATMKLLSSIEQACDICRLKKLKCSKEKPKCAKCLKNNWECRYSPKTKRSPLTRAHLTEVESRLERLEQLFLLIFPREDLDMILKMDSLQDIKALLTGLFVQDNVNKDAVTDRLASVETDMPLTLRQHRISATSSSEESSNKGQRQLTVSTRMRPECVVPESTCKLAPPTDVSLGDELHLDGEDVAMAHADALDDFDLDMLGDGDSPGPGFTPHDSAPYGALDMADFEFEQMFTDALGIDEYGGNTCKNKRREKEAQREKDKLPVSTTTVDDHMPAIMQCDPPPPEAARIHEVVPRFLTEKLMEQNRLKNVTPLSANQKSLIARLVWYQEGYEQPSEEDLKRVTQTWQLEEEEEEETDMPFRQITEMTILTVQLIVEFAKGLPGFSKISQSDQITLLKASSSEVMMLRVARRYDAATDSVLFANNQAYTRDNYRKAGMSYVIEDLLHFCRCMYSMSMDNVHYALLTAIVIFSDRPGLEQPLLVEEIQRYYLKTLRVYILNQHSASPRCAVLFGKILGVLTELRTLGTQNSNMCISLKLKNRKLPPFLEEIWDVAEVSTTKL",Experiment #1 RLU,[3],1.71 RLU
same,Experiment #2 RLU,[3],1.77 RLU
